Test results reported in patent publication US8975086B2, “Method for treating or preventing bladder cancer using the DEPDC1 polypeptide” (OncoTherapy Science, Inc., priority 2008, dated 2015).

What was measured:
[1] = biological target: T1, DEPDC1-ZNF224 complex (Homo sapiens, UniProt Q9NZL3, H562R/M118V); assay: Immunoprecipitation of exogenous DEPDC1-HA and ZNF224-FLAG complex in peptide-treated COS7 cells; type: cell-based; conditions: for complex formation between exogenously expressed DEPDC1-HA and ZNF224-Flag (immunoprecipitation): six peptides added 6 hours after transfection, immunoprecipitation fifteen hours later
T1 construct: expressed in transfected cells; host or cells: COS7 cells, transiently co-transfected (pCAGGS-type vectors)
Procedure: To confirm the interaction between DEPDC1 and ZNF224 in bladder cancer cells and identify the ZNF224-binding region in DEPDC1, the immunoprecipitation experiment was carried out as follows. First, it was confirmed interaction between endogenous DEPDC1 and exogenous ZNF224 by immunoprecipitation experiments using anti-DEPDC1 polyclonal antibody for immunoprecipitation and anti-FLAGM2 antibody (Amersham) for immunoblotting. To further determine the ZNF224-binding region in DEPDC1, it was cloned six partial constructs of DEPDC1 (DEPDC11-147, DEPDC1141-300, DEPDC1177-597, DEPDC1300-669, DEPDC1587-740 and DEPDC1654-811) into appropriate sites of COOH-terminal HA-tagged pCAGGS vector. The nucleotide sequence of each clones were determined with an ABI Prism 3700 DNA sequencer (Applied Biosystems, Foster City, Calif.), using each primer. Cell extracts from Cos7 cell line, transfected with each of plasmids expressing one of these six partial segments of DEPDC1, were precleared by incubation at 4 degrees C. for 1 hour with 100 micro 1 of protein G-agarose beads in final volumes of 2 mL of immunoprecipitation buffer (0.5% NP40, 50 mmol/L Tris-HCl, 150 mmol/L NaCl) in the presence of proteinase inhibitor. After centrifugation at 1,000 rpm for 5 minutes at 4 degrees C., the supernatants were incubated at 4 degrees C. with anti-HA rat for 1 hours. After the beads were collected from each sample by centrifugation at 5,000 rpm for 2 minutes and washed six times with 1 mL of immunoprecipitation buffer, the washed beads were re-suspended in 50 uL of Laemmli sample buffer and boiled for 3 minutes before the proteins were separated on 10% SDS-PAGE gels. Immunoblot was done using anti-HA rat antibody and anti-FLAGM2 monoclonal antibody, respectively (Sigma-Aldrich Co., St. Louis, Mo.).
To examine the effect of these polyarginine (11R)-linked peptides on inhibition of the DEPDC1-ZNF224 complex formation, they were co-transfected with DEPDC1 and ZNF224 constructs into COS7 cells. […] Immunoprecipitation were performed according to methods as described in “Identification of the ZNF224-binding regions in DEPDC1 protein” section.

[2] = system: UM-UC-3 cells; assay: MTT assay of cell viability of UM-UC-3 bladder cancer cells treated with 11R peptides; type: cell-based, human
Procedure: UM-UC-3 and normal human dermal fibroblast-derived NHDF-Ad cell lines were incubated with the 11R peptides at the concentration of 0, 1, 2, or 3 micromol/L for 5 days. Each peptide was added at every 24 hours at the appropriate concentrations and the viability of cells was evaluated by MTT assay at every day after the treatment.
To examine the effect of DEPDC1611-628 peptide on cell growth of UM-UC-3 and NHDF cells, the cells were incubated with the DEPDC1611-628 or scramble peptides at the concentration of 0, 1, 2, or 3 micro M for 5 days, respectively. Each peptide was added at every 24 hours at the appropriate concentrations and the viability of cells was evaluated by MTT assay every day. Absorbance at 570 nm wavelength was measured with a Microplate Reader 550 (Bio-Rad). These experiments were performed in triplicate.

[3] = system: DLG1; assay: Quantitative RT-PCR of downstream gene DLG1 in UM-UC-3 cells; type: cell-based, human; conditions: bladder cancer cells after peptide treatment
Procedure: UM-UC-3 cells were transfected with siRNA against DEPDC1 (si-DEPDC1), ZNF224 (si-ZNF224-2) or EGFP (control siRNA). The target sequences of the synthetic oligo-duplex for siRNA against DEPDC1 (Sigma Aldrich) were as follows: si-DEPDC1,5′-CCAAAGUUCCGUAGUCUAA-3′(SEQ ID NO: 75), ZNF224 (si-ZNF224-2) or EGFP as described in “RNA interference assay” section.
Total RNAs were extracted from each sample at 12 hours and 24 hours after the transfection, labeled with Cy5 (for si-DEPDC1- and si-ZNF224-2-transfected cells) or Cy3 (for si-EGFP-transfected cells), and subjected to cohybridization onto cDNA microarrayslides containing 36468 cDNA or ESTs as described previously (Takata R, et al., Clin Cancer Res 2005 11:2625-36). After normalization of the data, it was excluded genes from further analysis when Cy5 and Cy3 dyes yielded signals intensities lower than the cut-off value. For other genes, the Cy5/Cy3 ratio was calculated using the raw data of each samples. […] Validation of candidate downstream genes of both DEPDC1 and ZNF224 was carried out with quantitative RT-PCR analysis using the SYBR green dye (Rhoche) and the same amplified RNAs from UM-UC-3 cells used for cDNA microarray experiments, with each gene-specific primer as follows;
All experiments were performed in duplicate. The calculated quantity of the target gene for each sample was then divided by the average calculated quantity of beta 2-microglobulin (beta 2-MG) corresponding to each sample to give a relative expression of the target gene for each sample

[4] = system: NF-kappaB (p65); assay: Immunocytochemical staining of nuclear NF-kappaB (p65) in UM-UC-3 cells; type: cell-based, human; conditions: UM-UC-3 cells treated with peptide for 12 hours
Procedure: For detection of NF-kappaB expression in the nucleus after treatment with dominant-negative peptide (see “Dominant-negative peptide section”), UM-UC-3 cells (1×10^5) were seeded and then treated with each peptide for 12 hours. Subsequently, immunocytochemical staining was performed using anti-NF-kappaB (p65) monoclonal antibody (diluted at 1:200) (Santa Cruz, Calif., USA). Fluorescent images and nuclear intensity of NF-kappaB (p65) protein were obtained under a TCS SP2 AOBS microscope (Leica, Tokyo, Japan). For the image analysis, the nuclear signal intensities of NF-kappaB (p65) were measured by observing nuclei of 50 cells treated with the 11R-DEP611-628 peptide or scramble peptide (see “Dominant-negative peptide section”). Assays were performed in triplicate independently.

T1 sequence (Q9NZL3 whole entry M118V/H562R, one chain of several): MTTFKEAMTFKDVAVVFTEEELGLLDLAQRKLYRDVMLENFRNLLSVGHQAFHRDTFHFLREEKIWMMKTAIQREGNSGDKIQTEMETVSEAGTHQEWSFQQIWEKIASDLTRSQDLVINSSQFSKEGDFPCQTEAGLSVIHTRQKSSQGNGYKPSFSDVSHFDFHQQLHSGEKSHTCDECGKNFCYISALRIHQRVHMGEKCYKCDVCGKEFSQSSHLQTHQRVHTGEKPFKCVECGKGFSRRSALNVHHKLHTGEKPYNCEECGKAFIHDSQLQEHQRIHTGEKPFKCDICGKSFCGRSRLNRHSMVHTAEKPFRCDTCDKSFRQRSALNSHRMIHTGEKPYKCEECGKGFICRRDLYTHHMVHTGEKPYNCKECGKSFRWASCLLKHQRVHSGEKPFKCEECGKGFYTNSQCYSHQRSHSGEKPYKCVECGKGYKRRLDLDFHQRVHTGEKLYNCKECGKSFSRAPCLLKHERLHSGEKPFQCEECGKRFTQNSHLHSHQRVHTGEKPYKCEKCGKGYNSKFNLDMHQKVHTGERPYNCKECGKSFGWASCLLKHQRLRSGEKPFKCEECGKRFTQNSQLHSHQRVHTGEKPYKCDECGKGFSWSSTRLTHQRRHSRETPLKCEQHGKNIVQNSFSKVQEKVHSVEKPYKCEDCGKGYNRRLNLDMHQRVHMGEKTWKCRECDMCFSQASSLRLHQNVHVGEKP

Substance | complex formation between exogenously expressed DEPDC1-HA and ZNF224-Flag (immunoprecipitation) [1] | also measured
RRRRRRRRRRR-GGG-NGEKIKHEIINEDQENAI (RRRRRRRRRRRGGGNGEKIKHEIINEDQENAI; An artificially synthesised dominant negative peptide) [11R-DEP159-176, 11R-linked DEPDC1 codons 159-176 peptide] | no inhibition | –
RRRRRRRRRRR-GGG-PKRHGLHLSQENGEKIKHE (RRRRRRRRRRRGGGPKRHGLHLSQENGEKIKHE; An artificially synthesised dominant negative peptide) [11R-DEP148-166, 11R-linked DEPDC1 codons 148-166 peptide] | no inhibition | –

The next lines start with results.

complex formation between exogenously expressed DEPDC1-HA and ZNF224-Flag (immunoprecipitation) [1] | Substance | also measured
no inhibition | RRRRRRRRRRR-GGG-ISRMSQNVDMPKLHDAMG (RRRRRRRRRRRGGGISRMSQNVDMPKLHDAMG; An artificially synthesised dominant negative peptide) [11R-DEP624-641, 11R-linked DEPDC1 codons 624-641 peptide] | –
no inhibition | RRRRRRRRRRR-GGG-LHDAMGTRSLMIHTFSRC (RRRRRRRRRRRGGGLHDAMGTRSLMIHTFSRC; An artificially synthesised dominant negative peptide) [11R-DEP636-653, 11R-linked DEPDC1 codons 636-653 peptide] | –
not inhibit | RRRRRRRRRRR-GGG-LRMSRLSPNMIMQRPKRL (RRRRRRRRRRRGGGLRMSRLSPNMIMQRPKRL; An artificially synthesised dominant negative peptide) [scramble611-628] | cell viability measured by MTT assay ([2]; UM-UC-3 cells, peptide 1, 2 or 3 micro M added every 24 hours for 5 days): no effect; cell growth or cellular morphology ([2]; cells treated with peptide, FIG. 5D): no alterations in cell growth or cellular morphology; complex formation of DEPDC1-HA and ZNF224-FLAG (immunoprecipitation) ([1]; four peptides at 3 micro M added 6 hours after transfection, twenty-four hours later): no effect; expression of DLG1 (quantitative RT-PCR) [3]: not; nuclear-staining of NF-kappa B (p65) protein [4]: no effect
